Test results from patent US20170240642A1 (ALLIGATOR BIOSCIENCE, published 2017).
Positions count from the first letter of the chain named.

Target: T1, CD40hfc (R&Dsystems, USA) (human, UniProt P25942 21-193)
T1 construct: Bought reagent, amine-coupled to the Biacore chip; also called immobilized CD40 receptor; not shown: Fc part of the bought CD40hfc
Test: SPR, Biacore 3000; CD40hfc amine-coupled to chip, antibody as analyte; 37 C, pH 7.3
Protocol: The affinity measures of purified antibodies by surface plasmon resonance using the Biacore 3000 instrument was performed according to manufacturer's protocols.
The CD40hfc (R&Dsystems, USA) was immobilized to the BIAcore sensorchip, CMS, using conventional amine coupling. The anti-CD40 antibodies of the invention, (serially diluted 1/3 from 1-0.012 nM) were analysed for binding in HBS-P (GE, BR-1003-68) at a flow rate of 30 μl/min at 37° C. and pH 7.3. The association was followed for 3 minutes and the dissociation for 10 minutes. Regeneration was performed twice using 50 mM NaOH for 30 seconds. The kinetic parameters and the affinity constants were calculated using BIAevaluation 4.1 software.

T1 sequence (P25942 21-193): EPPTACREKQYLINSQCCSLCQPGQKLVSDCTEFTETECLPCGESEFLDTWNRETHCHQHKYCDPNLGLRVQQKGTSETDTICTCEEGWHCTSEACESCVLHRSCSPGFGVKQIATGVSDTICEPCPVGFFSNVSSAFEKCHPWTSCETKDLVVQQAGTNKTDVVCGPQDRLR

B1: Antibody clone F6 (antibody, human IgG1, lambda, V domains shown)
VH: EVQLLESGGGLVQPGGSLRLSCAASGFTFSTYGMHWVRQAPGKGLEWLSYISGGSSYIFYADSVRGRFTISRDNSENALYLQMNSLRAEDTAVYYCARILRGGSGMDLWGQGTLVTVSS
VL: QSVLTQPPSASGTPGQRVTISCTGSSSNIGAGYDVYWYQQLPGTAPKLLIYRNINRPSGVPDRFSGSKSGTSASLAISGLRSEDEADYYCAAWDGSLLGLVFGGGTKLTVLG
notes: Tested as purified antibody
B1 showed a koff of 0.00032 s⁻¹.

B2: Antibody clone F9 (antibody, human IgG1, lambda, V domains shown)
VH: B1 VH
VL: B1 VL with D34G, R52G, S96T, L98T, V101L
notes: Tested as purified antibody
With B2 the koff was 0.00012 s⁻¹.
